Target: T1, hJag1-rFc (human; rabbit, UniProt P78504 34-1067; P01870 96-323, limits assumed)
T1 construct: also called hJag-rFc; control antigen
Experiment: FACS of transfected HEK-293 cells incubated with hJag-rFc and PE-labeled anti-rabbit Fc antibody
Protocol: The effect of carrier plasmid on the transfection and display of an Ab-encoding plasmid was tested. The single chain anti-DLL4 antibody (sc21M18) described above was transfected with varying ratios of carrier plasmid. In this study, the carrier plasmid encoded an irrelevant […] antibody (sc18R5). The cells were also transfected with the Membrane-MAb(hIgG2)-GFP construct. The concentration of Ab library plasmid in the cells could be inferred from the level of surface expression of the anti-DLL4 antibody molecule. Approximately 5×10⁶ HEK-293 cells were transfected with plasmid DNA and harvested after 48 hours. The plasmid DNA was a mixture of sc21M18 and sc18R5, wherein the ratio of sc21M18 to sc18R5 varied from 1 to 10,000-fold excess of sc18R5 (1, 10, 100, 1000 or 10,000-fold excess). For detection of a functional anti-DLL4 antibody molecule on the cell surface, transfected cells were incubated with an hDLL4-rFc fusion protein. Bound hDLL4-rFc was detected with a PE-labeled anti-rabbit Fc antibody. The percentage of cells which expressed anti-DLL4 antibody was determined by FACS analysis. Cells were also incubated with a control antigen (hJag-rFc, -▪-) or only the PE-labeled anti-rabbit Fc antibody (-▴-).

T1 sequence (P78504 other isoform, or with tags, fused parts or gaps limits assumed): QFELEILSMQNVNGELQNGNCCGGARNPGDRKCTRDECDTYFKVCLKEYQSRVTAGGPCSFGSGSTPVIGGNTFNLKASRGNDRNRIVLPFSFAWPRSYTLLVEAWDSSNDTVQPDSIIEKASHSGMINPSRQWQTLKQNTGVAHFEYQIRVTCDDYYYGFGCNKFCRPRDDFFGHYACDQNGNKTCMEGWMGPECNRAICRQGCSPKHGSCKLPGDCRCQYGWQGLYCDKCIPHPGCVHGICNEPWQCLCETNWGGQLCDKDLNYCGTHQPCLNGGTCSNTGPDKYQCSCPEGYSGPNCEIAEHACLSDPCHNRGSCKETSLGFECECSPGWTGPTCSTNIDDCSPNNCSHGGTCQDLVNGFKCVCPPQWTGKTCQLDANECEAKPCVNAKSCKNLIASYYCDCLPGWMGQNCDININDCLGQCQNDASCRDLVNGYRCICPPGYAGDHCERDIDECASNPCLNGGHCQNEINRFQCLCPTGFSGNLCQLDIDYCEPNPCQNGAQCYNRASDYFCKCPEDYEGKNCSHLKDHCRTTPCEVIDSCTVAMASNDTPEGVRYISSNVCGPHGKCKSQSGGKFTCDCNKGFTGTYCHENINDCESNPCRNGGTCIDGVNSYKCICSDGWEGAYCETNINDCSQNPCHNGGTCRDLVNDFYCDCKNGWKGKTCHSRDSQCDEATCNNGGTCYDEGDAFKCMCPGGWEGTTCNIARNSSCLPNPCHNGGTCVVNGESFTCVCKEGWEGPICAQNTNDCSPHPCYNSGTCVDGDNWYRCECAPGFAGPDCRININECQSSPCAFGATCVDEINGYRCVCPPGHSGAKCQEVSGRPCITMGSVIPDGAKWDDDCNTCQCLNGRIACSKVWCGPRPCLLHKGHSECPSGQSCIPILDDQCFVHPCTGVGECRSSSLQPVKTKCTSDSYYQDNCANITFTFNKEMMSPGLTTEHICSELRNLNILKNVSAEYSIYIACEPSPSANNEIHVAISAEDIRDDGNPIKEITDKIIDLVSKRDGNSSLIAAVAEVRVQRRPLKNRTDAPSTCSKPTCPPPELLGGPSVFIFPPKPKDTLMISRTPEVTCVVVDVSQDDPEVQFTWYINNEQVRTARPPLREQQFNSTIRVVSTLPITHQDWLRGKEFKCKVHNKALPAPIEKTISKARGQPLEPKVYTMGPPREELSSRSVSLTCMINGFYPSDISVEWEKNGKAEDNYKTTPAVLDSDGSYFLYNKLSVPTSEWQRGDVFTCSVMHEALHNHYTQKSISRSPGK

B1: heterodimeric antibody molecule: single chain anti-DLL4 antibody sc21M18 associated with the Membrane-MAb(hIgG2)-GFP protein on the surface of HEK-293 cells (antibody)
chain 1: DIVMTQSPDSLAVSLGERATISCRASESVDNYGISFMKWFQQKPGQPPKLLIYAASNQGSGVPDRFSGSGSGTDFTLTISSLQAEDVAVYYCQQSKEVPWTFGGGTKVEIKRTVAAPSVFIFPPSDEQLKSGTASVVCLLNNFYPREAKVQWKVDNALQSGNSQESVTEQDSKDSTYSLSSTLTLSKADYEKHKVYACEVTHQGLSSPVTKSFNRGECGGGGGSGGGGSGGGGSGGGGSGGGGSGGGGSQVQLVQSGAEVKKPGASVKISCKASGYSFTAYYIHWVKQAPGQGLEWIGYISSYNGATNYNQKFKGRVTFTTDTSTSTAYMELRSLRSDDTAVYYCARDYDYDVGMDYWGQGTLVTVSSASTKGPSVFPLAPCSRSTSESTAALGCLVKDYFPEPVTVSWNSGALTSGVHTFPAVLQSSGLYSLSSVVTVPSSNFGTQTYTCNVDHKPSNTKVDKTVERKCCVECPPCPAPPVAGPSVFLFPPKPKDTLMISRTPEVTCVVVDVSHEDPEVQFNWYVDGVEVHNAKTKPREEQFNSTFRVVSVLTVVHQDWLNGKEYKCKVSNKGLPAPIEKTISKTKGQPREPQVYTLPPSREEMTKNQVSLTCLVKGFYPSDIAVEWESNGQPENNYKTTPPMLDSDGSFFLYSKLTVDKSRWQQGNVFSCSVMHEALHNHYTQKSLSLSPGK
chain 2: not shown
notes: also called anti-DLL4 antibody molecule
- binding result: no binding

— US20110287979A1 (ONCOMED PHARMACEUTICALS, published 2011)
